Consider 40 sequences from the nanobody polyreactivity screen of Harvey et al. (2022).

This data set in a line: yeast display, Sf9 membrane polyspecificity reagent, FACS + sequencing; frameworks hold sequencing errors. Summed up: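 Nanobodies came from a synthetic yeast display library in Saccharomyces cerevisiae BJ5465, induced with galactose for 36–48 hours and stained for 1 hour at 4 °C with 10% biotinylated, detergent-solubilized Sf9 membrane reagent. Cells were enriched on streptavidin microbeads and then FACS-sorted, with low and high (top ~1%) gates set on anti-HA fluorescence for expression and streptavidin fluorescence for reagent binding. Each polyreactivity label reflects the gate a clone came from. Genes were amplified by colony PCR, sequenced by MiSeq 2 × 250 and filtered by CDR length.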
Consider “QVQLVESGGGLVQAGGSLRLSCASSGSTFDYYVMGWYRQEPGIVRELVASISSGGSTYYADSVKGRFTISRDNAKNTVYLQMNSLKPEDTAVYYCAARYYGRVGGYSIGYNYWGQGTQVTVSS”, for which the “polyreactivity (PSR sort gate)” value is “high polyreactivity”.
To “QVQHVESGGGLVQAGVSLRLSCAASGFTFGSNAMGRYRPAPGKERELVAAINYSGVRTYYADSVKGRFTISRDNAKNTVYLQMNSLKPEDTAVYYCAKQRSKPNSFDYWGQGTQVTVSS” belongs “high polyreactivity”; to “QVQLVESGGGLVQAGGSLRLSCAASGRIFKLYAMGWYRQAPGKERELVAAITRRGGSTSYADSVKGRFTISRDNAKNTVYLQMNSLKPEDTAVYYCNARSSETWHGDYWGQGTQVTVSS”, “high polyreactivity”.
Turning to “QVQLVESGGGLVQPGGSLRLSCAASGIIFRYYAMGWYRQAPGKERELVAAITWSGGSTYYADSVKGRFTISRDNAKNTVYLQMNRLKPEDTAVFDCAADWWSVRGYAVDYWGQGTQVTVSS”, the “polyreactivity (PSR sort gate)” value is “high polyreactivity”.
To “QVQLVESGRGLVQAGGSLRLSCAASGTYGYYAMGWYRQAPGKQRELVAAISGSGGSTYYADSVKGRFTISRDNAKNTVYLQMNSLKPEDTAVYYCAKRRRYGGRWVSGDYWGQGTQVTVSS” belongs “high polyreactivity”; to “QVQLVESGGGLVQAGGSLSLSCAASGYIFLVYAMGWYRQAPGKERELVASITRGGGTTYYADSVKGRFTISRDNAKNTVYLLMNSLKREDTAVYYCAADLYSRGHRWYGYWGQGTQVTVSS”, “high polyreactivity”; to “QVQLVESGGGLVQAGGSLRLSCAASGSIFAFYTMGWYRQAPGKERELVATITRSGRTNYADSVKGRFTISRDNAKNTVYLQMNSLKPEDTAVYYCAAGYLSGNYARYGYWGQGTQVTVSS”, “high polyreactivity”.
To “QVQLVESGGGLVQAGGSLRLSCAASGFTFYAYVMGWYRQAPGKERELVAAISGSGTSTYYADSVKGRFTISRDNAKNTVYLQMNSLKPEDTAVYYCAADYYPWDLDDDYWGQGTQVTVSS” belongs “high polyreactivity”; to “QVQLVESGGGLFQAGGSLRLICAASGRTYYAYARGWYRQAPGKERELVAAITSGGSTYYADSVKGRFTISRDNAKNTVYLQMNSLKPEDTAVYYCNAGYYQWPFSGYDYWGQGTQVTVSS”, “low polyreactivity”.
To “QVQLVESGGGLVQAGGSLRLSCAASGSIFRGYAMGWYRQAPGKERELVAAITSSGARTFYADSVKGRFTISRDNAKNTVYFLMKSLRPEDTAVYYCDAVSANQDFDSWGQGTQVSVSS” belongs “high polyreactivity”; to “QVQLVESGGGLVQAGGSLRLSCAASGGIFRSYAMGWYRQAPGKETELVAAISWSTVSTYADSVKGRFTISRDNAKNTVYLQMYSLKPEDSAVYYCAASPFEYCYYYYGLYKEYYYWGQGNQVTVSS”, “low polyreactivity”.
In the case of “QVQLVESGGGLVQAGGSLRLSCAASGSIFGKYAMGWYRQAPGKERELVAAISWSGGSTYYADSVKGRFTISRDNAKNTVYLQMNSLKPEDTAVYYCAKRRVYYGSRYNYWGQGTQVTVSS”, the “polyreactivity (PSR sort gate)” value was “high polyreactivity”.
To “QVQLVESGGGLVQAGGSLRLSCAASGSTFYYYVMGWYRQAPGKERELVAVISKSGGSTRYADSVKGRFTISRDNAKNTVYLQMNSLKPEDTAVYYCAADGLRLVPGYKYDYWGQGTQVTVSS” belongs “high polyreactivity”.
On to “QVQLVESGGGLVQAGRSLRLSCAASGRNFTYYAMGWDRQAPGKERELVAAISGSAGSTYYADSVKGRFTISRDNAKNTVYLQMNSLKPEDTAVYYCNAVLVRQRDRGGYWGQGTQVTVSS”, for which the “polyreactivity (PSR sort gate)” value is “high polyreactivity”.
To “QVQLVESGGGLVQAGGSLRLSCAASGRIFDRNAMGWYRQAPGKERELVARISRTGGSTYYADSVKGRFTISRDNAKNTVYLQMNSLKPEDTAVYYCAASRGGGYDYWGQGTQVTVSS” belongs “high polyreactivity”; to “QVQLVESGGGLVQAGGSLRLSCAASGRTFASYVMGWYRQAPGKERELVASITRTGSTYYADSVKGRFTISRDNAKNTVYLQMNSLKPEDTAVYYCNAATFYRRSSTRGFNYWGQGTQVTVSS”, “high polyreactivity”.
To “QVQLVESGGGLVQAGGSLRLSCAASGNIFDGNAMGWYRQAPGKERELVAAITSSGDSTYYADSVKGRFTISRDNAKNTVYLLMNSLKPEDTAVYYCAAGYRWGYYYWGQGTQVTVSS” belongs “high polyreactivity”; to “QVQLVESGGGLVHAGGSLRLSCAASGTIFYRNAMGWYRQAPGKERELVAAITSRGGRTYYADSVKGRFTISRDNAKNTVYLQMNSLKPEDTAVYDCNKRYVYSTSDYDYWGQGTQVTVSS”, “high polyreactivity”; to “QVHLVESGGGLVQAGGSLRLSCASSGGTFPPNTMGWYRQAPGKEREFVAAITWRGSSTYYADSVKGRFTISRDNAKITFFLQMNSLKPEDSAVDYCAARRAYERMGFWGQGTQVTVSS”, “high polyreactivity”.
To “QVQLVESGGGLVQAGGSLRLSCAASGFTFGIYAMGRYRQAPGKERELVAAISRSGGSTYYADSVKGRFTISRDNAKNTVYLQMNSLKPEDTAVYYCNTRWGYARGGRYGYWGQGTQVTVSS” belongs “high polyreactivity”; to “QVQLVESGGGLVQAGGSLRLSCAASGSIFDPYAMGWYRQAPGKETELDAAITASGSSTYYADSVKGRFTISRDNAKNTVYLQMNSLKPEDTAVYYCAADRANWEYLLSWLGYDYWGQGTQVTVSS”, “low polyreactivity”; to “QVQLVESGGGLVQAGGSLRLSCAASGSTFTYYTMGWYRQAPGKERELVAAISRTTGSTYYADSVKGRFTISRDNAKNTVYLQLNSLKPEDTAVDYCAAQSYKILLYFIGTAGDGYWGQGTQVTVSS”, “low polyreactivity”.
Turning to “QVQLVESGGGLVQAGGSLRLSCAASGFIFDSYAMGWYRQAPGKERELVAAISWSGGRTYYADSVKGRFTISRDNAKNTVYLQMNSLKPEDTAVYYCNVRTKLSTSYDYWGQGTQVTVSS”, the “polyreactivity (PSR sort gate)” value is “high polyreactivity”.
To “QVQLVESGGRLVQAGGTLRLSCAASGRTLSNYALGWSRQAPGKERELVAAISSSGSTNYADSVKGRFTISRDNAKNTVYLQMNSLKPEDSAVYYCAAESWFLRWYRYDYWGQGTQVTVSS” belongs “low polyreactivity”; to “QVQLVESGGGLVQAGGSLRLSCAASGFTFDSNAMGWYRQAPGKERELVAAISKRGGSTYYADSVKGRFTISRDNAKNTVYLQMNRLKPEDTAVYYCAADNYNSGGTRHMYYWGQGSQVTVSS”, “high polyreactivity”; to “QVQLVESGGGLVQAGGSLRLSCAASGSTFYTYAMGWYRQAPGKERELVAAITSGGSTYYADSVKGRFTISRDNAKNTVYLQMNSLKPEDTAVYYCAARPYPHSAYEGDYWGRGTQVTVSS”, “low polyreactivity”.
To “QVQLVESGGGLVQAGGSLRLSCAASGRIFTSNAMGWYSQAPGKERELVAAITKSGGSTYYADSVKGRFTISRDNAKNTVYLQMNSLKPEVTAVYYCSAYPTSRYKYEYWGQGNQVTVSS” belongs “high polyreactivity”; to “QVQVVESGGGLVQAGGSLRLTCAASGRTFINYAIGRYRQPAAKERELVAAITPGGRTNYADSVKGRFTNSRDNAKYTVYLQMNSVTPEDTAVYYCAADRYYWGRYTLNYWGQGTQVTVSS”, “low polyreactivity”; to “QVQLVESGGGLVQAGGSLRLSCAASGSIFYSNAMGWYRQAPGKERELVAAIRRSGGSTYYADSVKGRFTISRDNAKNTVYLQMNSLKPEDTEVYYCAARYSGTYSFYLSVGSRGYNYWGQGTQVTVSS”, “high polyreactivity”.
To “QVQLVESGGGLVQAGGSLRLSCAASGSTLVTNAMGWYRQAPGKERELVAAITFSGGTTYYADSVKGRFTISRDNAKNTVYLQMNSLKPEDTAVYYCAAEIWLEYVGYDYWGQGTQVTVSS” belongs “high polyreactivity”; to “QVQLEESGGGLVQAGGSLRLSCAASGIISTVYAMGWYRQAPGKERELVAAISCSGGSTYYADSLKGSFTISRDNENNTVYLQMNSLKPEDTAVYYCSKGYQYQGNSYGYWGQGTQVTVSS”, “low polyreactivity”.
Regarding “QVQLVESGGGLVQAGGSLRLSCAASGRTFGKNAMGWYRQAPGKEREFVAAITSRGGSTYYADSVKGRFTISRDNAKNTVYLQMNSLKPEDTAVYYCAADYYQWSTFLGVYEYDYWGQGTQVTVSS”, the “polyreactivity (PSR sort gate)” value was “low polyreactivity”.
To “QVQLVESGGGLVQAGGSLRLSCAASGFTFRWYTMGWYRQAPGKERELFAAITGSGCTTYYADSVKGRFTISRDNAKNTVYLQMNSLKPEDTAVYYCAVVSGSLRTRYTYYYWGLGTQVTVSS” belongs “high polyreactivity”.
To “QVQLVESGGGLVQAGGSLRLSCAASGRIFSIYAMGSYRQAPGKERELVAAISFRGTSTYADSVKGRFTISRDNAKNTVYLQMNSLKPEDTAVYYCAVTGFDFLWPSLGGELDYWGQGTQVTVSS” belongs “low polyreactivity”; to “QVQLVESGVGLVQAGGSLRLSCAPSGSTFWVNGMGWYRPAPGKERELVASISQSGDNTYYADSVKGRFTISRDNAKNTVYLQMNSLKPEDTAVSYCATRYQYGGFLYYRFDDWGQGTQVTVSS”, “high polyreactivity”.
“QVQLVESGGGLVQAGRSLRLSCAASGFIFDWNAMGWYRQAPGKERELVAAISWSGGRTYYADSVKGRFTISRDNAKNTVYLQMNSLKPEDTAVYYCNARRYFSRDTSGYNYWGQGTQVTVSS”: the “polyreactivity (PSR sort gate)” value was “high polyreactivity”.
To “QVQLVESGGGLVQAGGSLRLSCAASGSTFRGYAMGWYRQAPGKERELVAAITGSGDRTRYADSVKGRFTISRDNAKNTVYLQMNSLKPEDTAVYYCAKVWPHWAYYSWGQGTQVTVSS” belongs “high polyreactivity”; to “QVQLLESGGGLVQAGGSLRLSCAASGRSYCNNVMGWYRQEPGKERELVAAITFSGTSTYYADSVKVRFTISRDNAKNTVYLQMNSLKPEDTAVYYCAKYRYADYYSPCYDYWGQGTQVTVSS”, “low polyreactivity”; to “QVQLVESGGGLVQAGGSLRLSCAASGLTFPYYVMGWSRQAPGKERELVAAITTDDRTYYADSVKGRFTISRDNAKNTVYLQMNSLKPEDTAVYYCNVVIYYFNSRTVYYDYDYWGQGTQVTVSS”, “high polyreactivity”.
In the case of “QVQLVESGGGLVQAGGSLRLSCAASGFTFRYYAMGWYRQAPGKERELVASITGGGRTYYADSVKGRFTISRDNAKNTVYLQMNSLKPEDTAVYYCATLLAYRLGSGYDSWGQGTQVTVSS”, the “polyreactivity (PSR sort gate)” value is “high polyreactivity”.
